Here are results for five molecules from patent US20210301011A1, “COMPOSITION FOR PROPHYLAXIS OR TREATMENT OF IL-8 RELATED DISEASES” (CHUGAI SEIYAKU KABUSHIKI KAISHA, priority 2016, published 2021).

In one series the test system is neutrophil migration. As to conditions: clinical trials against cystic fibrosis; cited from earlier work.
The test system of series [1] is pulmonary function (FEV1). The conditions noted are these: clinical trials for COPD patients; worsened in the placebo group; cited from earlier work.
For series [2] the following is noted: commercially available antibodies, known values; cited from earlier work.
Series [3] concerns the target T1, cynomolgus monkey FcγRIIIa (Macaca fascicularis, UniProt Q8SPW2).
T1 construct: the soluble forms of FcγRIa and FcγRIIIa in human and cynomolgus monkey; His tag; made in house
Nature of the series: Binding to soluble FcγR (BIACORE T200). As to conditions: 20° C., HBS-EP+. The protocol: (§1) Soluble FcγRIa and FcγRIIIa in both human and cynomolgus monkey were produced in the form of His-tagged molecules by methods known to those of ordinary skill in the art. […] Next, soluble FcγRIa or FcγRIIIa was injected with a running buffer (used as a reference solution), and was made to interact with the antibodies captured onto the sensor chip. HBS-EP+(GE Healthcare) was used as the running buffer, and HBS-EP+ was also used to dilute the soluble FcγRIa or FcγRIIIa. […] All measurements were carried out at 20° C.
For orientation: In SPR one partner is held on a chip, and binding of the other changes the refractive index at the surface.

The next series deals with cynomolgus monkey FcγRIa. In words: Binding to soluble FcγR (BIACORE T200). The conditions noted are these: 20° C., HBS-EP+. The protocol: as §1
The next series deals with T2, human FcγRIIIa (Homo sapiens, UniProt P08637).
T2 construct: the soluble forms of FcγRIa and FcγRIIIa in human and cynomolgus monkey; His tag; made in house
Nature of the series: Binding to soluble FcγR (BIACORE T200). As to conditions: 20° C., HBS-EP+. The protocol:
as §1

For another series, the target named is T3, human FcγRIa (Homo sapiens, UniProt P12314).
T3 construct: the soluble forms of FcγRIa and FcγRIIIa in human and cynomolgus monkey; His tag; made in house
Nature of the series: Binding to soluble FcγR (BIACORE T200). The conditions noted are these: 20° C., HBS-EP+. The protocol:
as §1

T3 sequence (P12314 16-292 limits assumed): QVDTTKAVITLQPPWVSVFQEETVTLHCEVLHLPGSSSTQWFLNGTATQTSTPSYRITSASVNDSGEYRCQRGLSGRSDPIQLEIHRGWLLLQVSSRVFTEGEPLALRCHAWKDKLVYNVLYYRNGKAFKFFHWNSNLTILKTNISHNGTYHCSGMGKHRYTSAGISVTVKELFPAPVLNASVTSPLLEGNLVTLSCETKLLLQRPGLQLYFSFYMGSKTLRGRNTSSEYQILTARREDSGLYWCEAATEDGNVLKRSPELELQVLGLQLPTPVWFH
T1 sequence (Q8SPW2 17-208 limits assumed): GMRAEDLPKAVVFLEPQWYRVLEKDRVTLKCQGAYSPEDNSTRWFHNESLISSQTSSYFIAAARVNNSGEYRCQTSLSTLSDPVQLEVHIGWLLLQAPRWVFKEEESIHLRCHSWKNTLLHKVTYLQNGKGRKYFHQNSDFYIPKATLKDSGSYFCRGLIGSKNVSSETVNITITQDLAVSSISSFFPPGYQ
T2 sequence (P08637 17-208 limits assumed): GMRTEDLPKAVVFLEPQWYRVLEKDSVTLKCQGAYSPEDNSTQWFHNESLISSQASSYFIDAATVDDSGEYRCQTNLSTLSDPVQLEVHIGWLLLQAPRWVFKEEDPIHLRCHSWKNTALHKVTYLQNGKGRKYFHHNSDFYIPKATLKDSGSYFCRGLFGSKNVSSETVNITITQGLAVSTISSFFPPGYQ

With `O=C(Nc1ccc(Cl)c(S(=O)(=O)N2CCNCC2)c1O)Nc1cccc(F)c1Cl` [Elubrixin], the topical neutrophil migration entry with neutrophil migration is on record as “Topical neutrophil migration was observed to be suppressed”.

Turning to `CC[C@@H](Nc1c(Nc2cccc(C(=O)N(C)C)c2O)c(=O)c1=O)c1ccc(C)o1` [MK7123], in series [1], the “pulmonary function (FEV1)” value is on record as “pulmonary function (FEV1) was improved in the active drug group”.

Turning to “Campath: commercially available antibody”, the “frequency of ADA development in humans” value in series [2] is on record as 45%.

For “Zenapax: commercially available antibody”, the “frequency of ADA development in humans” value in series [2] is listed as 14%.

B1: H1009/L395-F1886m: variable region of H1009/L395 with Fc variant F1886m (antibody)
heavy: QVQLVESGGGLVQPGGSLRLSCAASGFTFSDYYLSWVRQAPGKGLEWVGLIRNKDNYHTPEYSASVKGRFTISRDDSKNSLYLTMSDLKTEDTAVYYCARENHRYDVELAYWGQGTLVTVSSASTKGPSVFPLAPSSKSTSGGTAALGCLVKDYFPEPVTVSWNSGALTSGVHTFPAVLQSSGLYSLSSVVTVPSSSLGTQTYICNVNHKPSNTKVDKKVEPKSCDKTHTCPPCPAPELLGGPSVFLFPPKPKDTLMISRTPEVTCVVVDVSHEDPEVKFNWYVDGVEVHNAKTKPREEQYNSTYRVVSVLTVLHQDWLNGKEYKCKVSNKALPAPIEKTISKAKGQPREPQVYTLPPSREEMTKNQVSLTCLVKGFYPSDIAVEWESNGQPENNYKTTPPVLDSDGSFFLYSKLTVDKSRWQQGNVFSCSVLHEALHAHTTRKELSLSP
light: DIQMTQSPSSLSASVGDRVTITCRASEIIYSYLAWYQQKPGKAPKLLIYKAKTHADGVPSRFSGSGSGTDFTFTISSLQPEDIATYYCKHHFGFPRTFGQGTKVEIKRTVAAPSVFIFPPSDEQLKSGTASVVCLLNNFYPREAKVQWKVDNALQSGNSQESVTEQDSKDSTYSLSSTLTLSKADYEKHKVYACEVTHQGLSSPVTKSFNRGEC
For the molecule B1, in series [3], the “binding to soluble cynomolgus monkey FcγRIIIa” value is “bind to all FcγRs”. Besides, the “binding to soluble cynomolgus monkey FcγRIa” value in the series on cynomolgus monkey FcγRIa is “bind to all FcγRs”. In the series with human FcγRIIIa, the “binding to soluble human FcγRIIIa” value is on record as “bind to all FcγRs”. The “binding to soluble human FcγRIa” value with human FcγRIa is “bind to all FcγRs”.
